Experimental data published in US20090304706A1.

Biological target: human CD40 (human) (UniProt P25942)
Experiment: Biacore (SPR)

UniProt P25942, sequence (P25942 20-193 limits assumed): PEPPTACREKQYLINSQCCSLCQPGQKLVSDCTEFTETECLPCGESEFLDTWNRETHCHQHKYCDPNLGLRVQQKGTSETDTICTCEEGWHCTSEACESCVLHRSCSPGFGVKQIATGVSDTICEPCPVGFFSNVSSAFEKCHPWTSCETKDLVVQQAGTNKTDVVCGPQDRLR

| Kd [nM] | Molecule |
| --- | --- |
| 0.5 | monoclonal antibody CHIR-12.12 |
| 12 | monoclonal antibody CHIR-5.9 (antibody, human IgG1, kappa, V domains shown) VH: EVQLVQSGAEVKKPGESLKISCKGSGYSFTSYWIGWVRQMPGKGLEWMGIIYPGDSDTRYSPSFQGQVTISADKSISTAYLQWSSLKASDTAMYYCARGTAAGRDYYYYYGMDVWGQGTTVTVSS VL: AIVMTQPPLSSPVTLGQPASISCRSSQSLVHSDGNTYLNWLQQRPGQPPRLLIYKFFRRLSGVPDRFSGSGAGTDFTLKISRVEAEDVGVYYCMQVTQFPHTFGQGTRLEIKR |
